Data on one molecule can be found in PMC9082959, “Mechanism of Assembly of the Non-Covalent Spectrin Tetramerization Domain from Intrinsically Disordered Partners” (Journal of molecular biology, 2013).

What all share (test): ITC; β16β17 at 25–50 μM in the cell titrated with 15–20 injections to 2–2.5 eq of α0α1; one-site binding model; PBS (50 mM sodium phosphate, 150 mM NaCl, pH 7.04), 25 °C; mutants only against the wild-type partner
Common to all, as to details: both partners purified

In one assay the target is T1, β16β17 C9A (human, UniProt P11277 1898-2083, C2012A).
T1 construct: erythrocyte β-spectrin, human, residues 1898-2083 (β16β17); mutant of m2; also called C2012A; source: E. coli C41(DE3), purified (Ni2+ agarose, thrombin cleavage, gel filtration)
T1 sequence (looked up): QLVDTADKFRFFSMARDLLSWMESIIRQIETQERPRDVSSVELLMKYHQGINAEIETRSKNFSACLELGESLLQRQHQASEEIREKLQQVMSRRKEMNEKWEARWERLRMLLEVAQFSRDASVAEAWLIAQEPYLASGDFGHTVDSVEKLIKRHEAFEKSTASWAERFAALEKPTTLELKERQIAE

A further assay addresses T2, β16β17 A20G (human, UniProt P11277 1898-2083, A2023G).
T2 construct: erythrocyte β-spectrin, human, residues 1898-2083 (β16β17); mutant of m2; also called A2023G; source: E. coli C41(DE3), purified (Ni2+ agarose, thrombin cleavage, gel filtration)
T2 sequence (looked up): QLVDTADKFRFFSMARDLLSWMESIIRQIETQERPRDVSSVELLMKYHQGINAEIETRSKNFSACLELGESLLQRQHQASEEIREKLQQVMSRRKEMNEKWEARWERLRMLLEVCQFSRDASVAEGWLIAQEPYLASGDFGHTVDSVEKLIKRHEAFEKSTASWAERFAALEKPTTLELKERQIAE

The next assay has as its target T3, β16β17 K53A (human, UniProt P11277 1898-2083, K2056A).
T3 construct: erythrocyte β-spectrin, human, residues 1898-2083 (β16β17); mutant of m2; also called K2056A; source: E. coli C41(DE3), purified (Ni2+ agarose, thrombin cleavage, gel filtration)
T3 sequence (looked up): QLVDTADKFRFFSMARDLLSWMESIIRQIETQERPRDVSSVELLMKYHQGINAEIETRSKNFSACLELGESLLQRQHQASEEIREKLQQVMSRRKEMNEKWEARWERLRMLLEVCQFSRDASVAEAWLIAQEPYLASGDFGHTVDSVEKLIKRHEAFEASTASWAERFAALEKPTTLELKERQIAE

In a further assay the target is T4, β16β17 R13G (human, UniProt P11277 1898-2083, R2016G).
T4 construct: erythrocyte β-spectrin, human, residues 1898-2083 (β16β17); mutant of m2; also called R2016G; source: E. coli C41(DE3), purified (Ni2+ agarose, thrombin cleavage, gel filtration)
T4 sequence (looked up): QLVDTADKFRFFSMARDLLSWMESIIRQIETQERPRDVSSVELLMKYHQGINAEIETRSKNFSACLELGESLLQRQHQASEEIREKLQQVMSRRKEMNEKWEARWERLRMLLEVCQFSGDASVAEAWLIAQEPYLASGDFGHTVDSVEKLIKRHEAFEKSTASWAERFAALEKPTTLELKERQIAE

Another assay concerns the target T5, β16β17 S16G (human, UniProt P11277 1898-2083, S2019G).
T5 construct: erythrocyte β-spectrin, human, residues 1898-2083 (β16β17); mutant of m2; also called S2019G; source: E. coli C41(DE3), purified (Ni2+ agarose, thrombin cleavage, gel filtration)
T5 sequence (looked up): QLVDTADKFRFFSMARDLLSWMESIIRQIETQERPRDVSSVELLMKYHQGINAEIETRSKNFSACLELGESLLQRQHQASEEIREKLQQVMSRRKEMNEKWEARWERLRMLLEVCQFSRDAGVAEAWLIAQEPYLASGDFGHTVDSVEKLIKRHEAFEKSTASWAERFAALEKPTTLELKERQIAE

The target of a further assay is T6, β16β17 K43A (human, UniProt P11277 1898-2083, K2046A).
T6 construct: erythrocyte β-spectrin, human, residues 1898-2083 (β16β17); mutant of m2; also called K2046A; source: E. coli C41(DE3), purified (Ni2+ agarose, thrombin cleavage, gel filtration)
T6 sequence (looked up): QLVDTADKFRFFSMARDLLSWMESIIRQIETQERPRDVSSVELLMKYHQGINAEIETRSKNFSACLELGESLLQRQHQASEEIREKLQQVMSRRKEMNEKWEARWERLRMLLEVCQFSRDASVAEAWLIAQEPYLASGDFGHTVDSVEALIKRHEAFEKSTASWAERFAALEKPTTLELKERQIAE

B1: α0α1 (erythrocyte α-spectrin residues 2–163), wild type (domain or fragment, human, UniProt P02549 2-163, looked up)
chain: EQFPKETVVESSGPKVLETAEEIQERRQEVLTRYQSFKERVAERGQKLEDSYHLQVFKRDADDLGKWIMEKVNILTDKSYEDPTNIQGKYQKHQSLEAEVQTKSRLMSELEKTREERFTMGHSAHEETKAHIEELRHLWDLLLELTLEKGDQLLRALKFQQY
notes: synthetic gene (GenScript) in a modified pRSETA plasmid; also called α1α0; source: E. coli C41(DE3), purified (Ni2+ agarose, thrombin cleavage, gel filtration)
Turning to B1, the Ka in the assay with β16β17 C9A was found to be 2.7e+06 M⁻¹; with β16β17 A20G, 530000 M⁻¹; in the assay with β16β17 K53A it was 1.5e+06 M⁻¹; with β16β17 R13G, 71000 M⁻¹; with β16β17 S16G, 360000 M⁻¹; with β16β17 K43A, 1.8e+06 M⁻¹.
